± gives the standard deviation of the averaged measurements.
Experiment: total protein half-life in vivo (active degradation + dilution); higher = more stable protein
[1] = E. coli NCM3722 delta-clpP delta-lon delta-hslV, growth: N-lim chemostat, doubling time 6 h
[2] = wild type E. coli NCM3722, growth: P-lim chemostat, doubling time 6 h
[3] = wild type E. coli NCM3722, growth: P-lim chemostat, doubling time 12 h
[4] = E. coli NCM3722 delta-lon, growth: N-lim chemostat, doubling time 6 h
[5] = E. coli NCM3722 delta-clpP, growth: N-lim chemostat, doubling time 6 h
[6] = E. coli NCM3722 delta-hslV, growth: N-lim chemostat, doubling time 6 h
[7] = E. coli NCM3722 delta-smpB, growth: N-lim chemostat, doubling time 6 h
[8] = wild type E. coli NCM3722, growth: C-lim chemostat, doubling time 3 h
[9] = wild type E. coli NCM3722, growth: C-lim chemostat, doubling time 6 h
[10] = wild type E. coli NCM3722, growth: C-lim chemostat, doubling time 12 h
[11] = wild type E. coli NCM3722, growth: N-lim chemostat, doubling time 6 h
[12] = wild type E. coli NCM3722, growth: N-lim chemostat, doubling time 12 h

| Sequence | total protein half-life in vivo [1] | total protein half-life in vivo [2] | total protein half-life in vivo [3] | total protein half-life in vivo [4] | total protein half-life in vivo [5] | total protein half-life in vivo [6] | total protein half-life in vivo [7] | total protein half-life in vivo [8] | total protein half-life in vivo [9] | total protein half-life in vivo [10] | total protein half-life in vivo [11] | total protein half-life in vivo [12] |
| --- | --- | --- | --- | --- | --- | --- | --- | --- | --- | --- | --- | --- |
| MRVFKTKLIRLQLTAEELDALTADFISYKRDGVLPDIFGRDALYDDSFTWPLIKFERVAHIHLANENNPFPPQLRQFSRTNDEAHLVYCQGAFDEQAWLLIAILKPEPHKLARDNNQMHKIGKMAEAFRMRF | 7.33 h | > 8 h | 12.4 ± 1 h |  |  |  |  |  |  |  |  |  |
| MRVITLAGSPRFPSRSSSLLEYAREKLNGLDVEVYHWNLQNFAPEDLLYARFDSPALKTFTEQLQQADGLIVATPVYKAAYSGALKTLLDLLPERALQGKVVLPLATGGTVAHLLAVDYALKPVLSALKAQEILHGVFADDSQVIDYHHRPQFTPNLQTRLDTALETFWQALHRRDVQVPDLLSLRGNAHA | 4.66 ± 0.17 h |  |  | 1.83 h |  |  |  |  |  |  |  |  |
| MRVLGIETSCDETGIAIYDDEKGLLANQLYSQVKLHADYGGVVPELASRDHVRKTVPLIQAALKESGLTAKDIDAVAYTAGPGLVGALLVGATVGRSLAFAWDVPAIPVHHMEGHLLAPMLEDNPPEFPFVALLVSGGHTQLISVTGIGQYELLGESIDDAAGEAFDKTAKLLGLDYPGGPLLSKMAAQGTAGRFVFPRPMTDRPGLDFSFSGLKTFAANTIRDNGTDDQTRADIARAFEDAVVDTLMIKCKRALDQTGFKRLVMAGGVSANRTLRAKLAEMMKKRRGEVFYARPEFCTDNGAMIAYAGMVRFKAGATADLGVSVRPRWPLAELPAA | 4.38 ± 0.12 h | 4.07 ± 0.11 h | 8.07 ± 0.76 h | 4.84 ± 1.2 h | 3 ± 0.72 h | 3.73 ± 1.1 h | 3.17 ± 0.33 h | 2.618 ± 0.021 h | 4.72 ± 0.64 h | 7.77 ± 1.6 h | 3.33 ± 0.5 h | 4.16 ± 0.42 h |
| MRVLLAPMEGVLDSLVRELLTEVNDYDLCITEFVRVVDQLLPVKVFHRICPELQNASRTPSGTLVRVQLLGQFPQWLAENAARAVELGSWGVDLNCGCPSKTVNGSGGGATLLKDPELIYQGAKAMREAVPAHLPVSVKVRLGWDSGEKKFEIADAVQQAGATELVVHGRTKEQGYRAEHIDWQAIGDIRQRLNIPVIANGEIWDWQSAQQCMAISGCDAVMIGRGALNIPNLSRVVKYNEPRMPWPEVVALLQKYTRLEKQGDTGLYHVARIKQWLSYLRKEYDEATELFQHVRVLNNSPDIARAIQAIDIEKL | 5.15 ± 0.54 h | 5.81 ± 0.9 h | 11.7 ± 1.4 h |  | 4.72 ± 0.35 h | 4.92 ± 0.12 h | 4.76 ± 0.15 h | 2.89 ± 0.34 h |  | 10.6 h | 5.2 ± 0.37 h | 8.91 ± 1.2 h |
| MRVLVVEDNALLRHHLKVQIQDAGHQVDDAEDAKEADYYLNEHIPDIAIVDLGLPDEDGLSLIRRWRSNDVSLPILVLTARESWQDKVEVLSAGADDYVTKPFHIEEVMARMQALMRRNSGLASQVISLPPFQVDLSRRELSINDEVIKLTAFEYTIMETLIRNNGKVVSKDSLMLQLYPDAELRESHTIDVLMGRLRKKIQAQYPQEVITTVRGQGYLFELR | 4.69 ± 0.2 h | 5.134 ± 0.051 h | 8.98 ± 0.26 h | 4.7 ± 0.21 h | 4.2 ± 0.46 h | 4.056 ± 0.01 h | 4.19 ± 0.29 h | 2.85 ± 0.13 h | 5.04 ± 0.12 h | 8.69 ± 1 h | 4.33 ± 0.29 h | 7.55 ± 0.24 h |
| MRWLPFIAIFLYVYIEISIFIQVAHVLGVLLTLVLVIFTSVIGMSLVRNQGFKNFVLMQQKMAAGENPAAEMIKSVSLIIAGLLLLLPGFFTDFLGLLLLLPPVQKHLTVKLMPHLRFSRMPGGGFSAGTGGGNTFDGEYQRKDDERDRLDHKDDRQD | 5.99 ± 0.11 h | 5.89 ± 0.25 h | 12.4 ± 0.96 h | 6.06 ± 0.49 h | 6.83 ± 1.1 h | 6.44 ± 0.84 h | 5.53 ± 0.073 h | 2.47 ± 0.28 h | 7.17 ± 0.34 h | 11.7 ± 1.8 h | 6.12 ± 1.3 h | 14.2 h |
| MRWQGRRESDNVEDRRNSSGGPSMGGPGFRLPSGKGGLILLIVVLVAGYYGVDLTGLMTGQPVSQQQSTRSISPNEDEAAKFTSVILATTEDTWGQQFEKMGKTYQQPKLVMYRGMTRTGCGAGQSIMGPFYCPADGTVYIDLSFYDDMKDKLGADGDFAQGYVIAHEVGHHVQKLLGIEPKVRQLQQNATQAEVNRLSVRMELQADCFAGVWGHSMQQQGVLETGDLEEALNAAQAIGDDRLQQQSQGRVVPDSFTHGTSQQRYSWFKRGFDSGDPAQCNTFGKSI | 5.3 ± 0.69 h | 3.37 ± 0.57 h | 8.39 ± 3.7 h |  | 6.06 ± 0.32 h | 5.36 ± 0.17 h | 4.87 ± 0.34 h | 2.861 ± 0.027 h | 5.19 ± 0.22 h | 7.6 ± 3 h | 5.54 ± 0.5 h | 11.2 ± 2 h |
| MRYIVALTGGIGSGKSTVANAFADLGINVIDADIIARQVVEPGAPALHAIADHFGANMIAADGTLQRRALRERIFANPEEKNWLNALLHPLIQQETQHQIQQATSPYVLWVVPLLVENSLYKKANRVLVVDVSPETQLKRTMQRDDVTREHVEQILAAQATREARLAVADDVIDNNGAPDAIASDVARLHAHYLQLASQFVSQEKP [P0A6I9] | 4.61 ± 0.82 h | 5.34 ± 0.12 h | 11.1 ± 0.22 h | 4.32 ± 0.1 h | 4.08 ± 0.2 h | 4.04 ± 0.14 h | 4.78 ± 0.96 h | 3.06 ± 0.28 h | 4.83 ± 0.92 h | 9.87 ± 0.29 h | 4.18 ± 0.04 h | 6.95 ± 0.2 h |

From the supplement of paper PMC11246515
